Article PMC11234460, “In Silico Discovery of Stapled Peptide Inhibitor Targeting the Nur77‐PPARγ Interaction and Its Anti‐Breast‐Cancer Efficacy” (Advanced Science, 2024)
Bridges are numbered along the chain shown (N, C = ends). [ ]: non-standard residue; d: D form. S5 = C=CCCC[C@](C)(N)C(=O)O

Target: LBD fragment of human Nur77 (residues 351–598) (human), P22736
Test: SPR
Settings: S-pentenyl-alanine (S5) at the i and i + 4 positions (Phe163 & Ile167), joined by ring-closing olefin metathesis (all-hydrocarbon staple), C-terminal primary amide X8 and X12 = S5 (S-pentenyl-alanine, replacing Phe163 and Ile167 of PPARγ), joined by an i,i+4 all-hydrocarbon staple (ring-closing olefin metathesis), free N-terminal amine, Tyr14 replaces Leu169, residues 15-25 are t, modification not given

Chain of LBD fragment of human Nur77 (residues 351–598) (human), P22736 (P22736 351-598): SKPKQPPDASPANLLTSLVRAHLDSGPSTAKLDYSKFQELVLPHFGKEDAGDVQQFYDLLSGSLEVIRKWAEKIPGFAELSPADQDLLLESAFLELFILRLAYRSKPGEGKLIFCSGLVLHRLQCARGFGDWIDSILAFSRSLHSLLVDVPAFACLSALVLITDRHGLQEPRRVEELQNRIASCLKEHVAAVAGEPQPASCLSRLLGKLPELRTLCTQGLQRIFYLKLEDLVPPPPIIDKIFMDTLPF

B1: ST-CY14 (stapled T-CY14), P37231 156-169 (peptide)
chain: H-CEGCKGF[S5]RRT[S5]RYYGRKKRRQRRR-NH2
modifications: staple 8-12; cysteine pairing not given here
- koff: 0.052 s⁻¹
